Biological target: HD5
Experiment: SPR

B1: HLA-B27 heavy chain homodimer (B27_(2)), recombinant HLA-B*2705 homodimer complex (complex)
chain 1: GSHSMRYFHTSVSRPGRGEPRFITVGYVDDTLFVRFDSDAASPREEPRAPWIEQEGPEYWDRETQICKAKAQTDREDLRTLLRYYNQSEAGSHTLQNMYGCDVGPDGRLLRGYHQDAYDGKDYIALNEDLSSWTAADTAAQITQRKWEAARVAEQLRAYLEGECVEWLRRYLENGKETLQRADPPKTHVTHHPISDHEATLRCWALGFYPAEITLTWQRDGEDQTQDTELVETRPAGDRTFQKWAAVVVPSGEEQRYTCHVQHEGLPKPLTLRWEPSSQSTVPIV
chain 2: SRYWAIRTR
modifications: biotinylated (site not stated)
Question: How did the Kd turn out when B1 was run?
Answer: The Kd was 0.32 nM.

From paper PMC4488392 (2015)
